The values below come from US20030032587A1, “Urocortin peptides” (The Salk Institute for Biological Studies, priority 1995, published 2003).

The target in this assay is CRF receptors on anterior pituitary cells in culture. The experiment in a line: cell-based or functional assay.

Bridges are numbered along the chain shown (N, C = ends). Where no end group is shown, it is not given here. [ ]: non-standard residue; d: D form.

B1: (cyclo 29-32) [Ac-Pro3,D-Ser4,D-Phe11, Glu29, Lys32]-hUcn(3-40) (peptide)
peptide: Ac-P[dS]LSIDLT[dF]HLLRTLLELARTQSQREEAEKNRIIFDSV-NH2
modifications: lactam 27-30
SMILES: CC[C@H](C)[C@H](NC(=O)[C@H](CO)NC(=O)[C@H](CC(C)C)NC(=O)[C@@H](CO)NC(=O)[C@@H]1CCCN1C(C)=O)C(=O)N[C@@H](CC(=O)O)C(=O)N[C@@H](CC(C)C)C(=O)N[C@H](C(=O)N[C@H](Cc1ccccc1)C(=O)N[C@@H](Cc1c[nH]cn1)C(=O)N[C@@H](CC(C)C)C(=O)N[C@@H](CC(C)C)C(=O)N[C@@H](CCCNC(=N)N)C(=O)N[C@H](C(=O)N[C@@H](CC(C)C)C(=O)N[C@@H](CC(C)C)C(=O)N[C@@H](CCC(=O)O)C(=O)N[C@@H](CC(C)C)C(=O)N[C@@H](C)C(=O)N[C@@H](CCCNC(=N)N)C(=O)N[C@H](C(=O)N[C@@H](CCC(N)=O)C(=O)N[C@@H](CO)C(=O)N[C@@H](CCC(N)=O)C(=O)N[C@@H](CCCNC(=N)N)C(=O)N[C@@H](CCC(=O)O)C(=O)N[C@H]1CCC(=O)NCCCC[C@@H](C(=O)N[C@@H](CC(N)=O)C(=O)N[C@@H](CCCNC(=N)N)C(=O)N[C@H](C(=O)N[C@H](C(=O)N[C@@H](Cc2ccccc2)C(=O)N[C@@H](CC(=O)O)C(=O)N[C@@H](CO)C(=O)N[C@H](C(N)=O)C(C)C)[C@@H](C)CC)[C@@H](C)CC)NC(=O)[C@H](CCC(=O)O)NC(=O)[C@H](C)NC1=O)[C@@H](C)O)[C@@H](C)O)[C@@H](C)O
B1: the ACTH secretion, anterior pituitary cell cultures, potency relative to r/hCRF was 5.69 times r/hCRF.

B2: (cyclo 29-32) [D-Tyr11, Glu29, Lys32]-Ucn(11-40) (peptide)
peptide: [dY]HLLRTLLELARTQSQREEAEKNRIIFDSV-NH2
modifications: lactam 19-22; N-terminus assumed
SMILES: CC[C@H](C)[C@H](NC(=O)[C@H](CCCNC(=N)N)NC(=O)[C@H](CC(N)=O)NC(=O)[C@@H]1CCCCNC(=O)CC[C@H](NC(=O)[C@H](CCC(=O)O)NC(=O)[C@H](CCCNC(=N)N)NC(=O)[C@H](CCC(N)=O)NC(=O)[C@H](CO)NC(=O)[C@H](CCC(N)=O)NC(=O)[C@@H](NC(=O)[C@H](CCCNC(=N)N)NC(=O)[C@H](C)NC(=O)[C@H](CC(C)C)NC(=O)[C@H](CCC(=O)O)NC(=O)[C@H](CC(C)C)NC(=O)[C@H](CC(C)C)NC(=O)[C@@H](NC(=O)[C@H](CCCNC(=N)N)NC(=O)[C@H](CC(C)C)NC(=O)[C@H](CC(C)C)NC(=O)[C@H](Cc2c[nH]cn2)NC(=O)[C@H](N)Cc2ccc(O)cc2)[C@@H](C)O)[C@@H](C)O)C(=O)N[C@@H](C)C(=O)N[C@@H](CCC(=O)O)C(=O)N1)C(=O)N[C@H](C(=O)N[C@@H](Cc1ccccc1)C(=O)N[C@@H](CC(=O)O)C(=O)N[C@@H](CO)C(=O)N[C@H](C(N)=O)C(C)C)[C@@H](C)CC
With B2, the antagonism of ACTH secretion under a challenge dose of ovine CRF, potency relative to the Standard Antagonist (times Standard Antagonist) turned out to be 4.01.

B3: (cyclo 29-32) [Ac-Pro3,D-Pro4,D-Phe11, Glu29, Lys32]-hUcn(3-40) (peptide)
peptide: Ac-P[dP]LSIDLT[dF]HLLRTLLELARTQSQREEAEKNRIIFDSV-NH2
modifications: lactam 27-30
SMILES: CC[C@H](C)[C@H](NC(=O)[C@H](CO)NC(=O)[C@H](CC(C)C)NC(=O)[C@H]1CCCN1C(=O)[C@@H]1CCCN1C(C)=O)C(=O)N[C@@H](CC(=O)O)C(=O)N[C@@H](CC(C)C)C(=O)N[C@H](C(=O)N[C@H](Cc1ccccc1)C(=O)N[C@@H](Cc1c[nH]cn1)C(=O)N[C@@H](CC(C)C)C(=O)N[C@@H](CC(C)C)C(=O)N[C@@H](CCCNC(=N)N)C(=O)N[C@H](C(=O)N[C@@H](CC(C)C)C(=O)N[C@@H](CC(C)C)C(=O)N[C@@H](CCC(=O)O)C(=O)N[C@@H](CC(C)C)C(=O)N[C@@H](C)C(=O)N[C@@H](CCCNC(=N)N)C(=O)N[C@H](C(=O)N[C@@H](CCC(N)=O)C(=O)N[C@@H](CO)C(=O)N[C@@H](CCC(N)=O)C(=O)N[C@@H](CCCNC(=N)N)C(=O)N[C@@H](CCC(=O)O)C(=O)N[C@H]1CCC(=O)NCCCC[C@@H](C(=O)N[C@@H](CC(N)=O)C(=O)N[C@@H](CCCNC(=N)N)C(=O)N[C@H](C(=O)N[C@H](C(=O)N[C@@H](Cc2ccccc2)C(=O)N[C@@H](CC(=O)O)C(=O)N[C@@H](CO)C(=O)N[C@H](C(N)=O)C(C)C)[C@@H](C)CC)[C@@H](C)CC)NC(=O)[C@H](CCC(=O)O)NC(=O)[C@H](C)NC1=O)[C@@H](C)O)[C@@H](C)O)[C@@H](C)O
Turning to B3, the ACTH secretion, anterior pituitary cell cultures, potency relative to r/hCRF amounted to 9.9 times r/hCRF.

B4: (cyclo 29-32) [D-Phe11, Glu29, D-Glu31, Lys32]-Ucn(11-40) (peptide)
peptide: [dF]HLLRTLLELARTQSQREEA[dE]KNRIIFDSV-NH2
modifications: lactam 19-22; N-terminus assumed
SMILES: CC[C@H](C)[C@H](NC(=O)[C@H](CCCNC(=N)N)NC(=O)[C@H](CC(N)=O)NC(=O)[C@@H]1CCCCNC(=O)CC[C@H](NC(=O)[C@H](CCC(=O)O)NC(=O)[C@H](CCCNC(=N)N)NC(=O)[C@H](CCC(N)=O)NC(=O)[C@H](CO)NC(=O)[C@H](CCC(N)=O)NC(=O)[C@@H](NC(=O)[C@H](CCCNC(=N)N)NC(=O)[C@H](C)NC(=O)[C@H](CC(C)C)NC(=O)[C@H](CCC(=O)O)NC(=O)[C@H](CC(C)C)NC(=O)[C@H](CC(C)C)NC(=O)[C@@H](NC(=O)[C@H](CCCNC(=N)N)NC(=O)[C@H](CC(C)C)NC(=O)[C@H](CC(C)C)NC(=O)[C@H](Cc2c[nH]cn2)NC(=O)[C@H](N)Cc2ccccc2)[C@@H](C)O)[C@@H](C)O)C(=O)N[C@@H](C)C(=O)N[C@H](CCC(=O)O)C(=O)N1)C(=O)N[C@H](C(=O)N[C@@H](Cc1ccccc1)C(=O)N[C@@H](CC(=O)O)C(=O)N[C@@H](CO)C(=O)N[C@H](C(N)=O)C(C)C)[C@@H](C)CC
B4: the antagonism of ACTH secretion under a challenge dose of ovine CRF, potency relative to the Standard Antagonist (times Standard Antagonist) was determined as 4.72.

B5: (cyclo 29-32)[D-Phe11, Glu29, Lys32]-Ucn(11-40) (peptide)
peptide: [dF]HLLRTLLELARTQSQREEAEKNRIIFDSV-NH2
modifications: lactam 19-22; N-terminus assumed
SMILES: CC[C@H](C)[C@H](NC(=O)[C@H](CCCNC(=N)N)NC(=O)[C@H](CC(N)=O)NC(=O)[C@@H]1CCCCNC(=O)CC[C@H](NC(=O)[C@H](CCC(=O)O)NC(=O)[C@H](CCCNC(=N)N)NC(=O)[C@H](CCC(N)=O)NC(=O)[C@H](CO)NC(=O)[C@H](CCC(N)=O)NC(=O)[C@@H](NC(=O)[C@H](CCCNC(=N)N)NC(=O)[C@H](C)NC(=O)[C@H](CC(C)C)NC(=O)[C@H](CCC(=O)O)NC(=O)[C@H](CC(C)C)NC(=O)[C@H](CC(C)C)NC(=O)[C@@H](NC(=O)[C@H](CCCNC(=N)N)NC(=O)[C@H](CC(C)C)NC(=O)[C@H](CC(C)C)NC(=O)[C@H](Cc2c[nH]cn2)NC(=O)[C@H](N)Cc2ccccc2)[C@@H](C)O)[C@@H](C)O)C(=O)N[C@@H](C)C(=O)N[C@@H](CCC(=O)O)C(=O)N1)C(=O)N[C@H](C(=O)N[C@@H](Cc1ccccc1)C(=O)N[C@@H](CC(=O)O)C(=O)N[C@@H](CO)C(=O)N[C@H](C(N)=O)C(C)C)[C@@H](C)CC
B5 yielded an antagonism of ACTH secretion under a challenge dose of ovine CRF, potency relative to the Standard Antagonist (times Standard Antagonist) of 10.3.
